# Numbering of substitutions follows the chain as printed.
# B1: C1520 IgG (antibody, V domains shown)
# VH: EVQLVESGGGLVQPGGSLRLACVASGFTFSIYEMNWVRQAPGKGLEWVSYITTSGHARYNADSVKGRFTISRDNSKNSFYLQMNSLRAEDTAIYYCARPQYHYYDTSTYHSYGFDIWGQGTMVTVSS
# VL: QLVLTQSPSASASLGASVNLTCTLSSGHNSYAIAWHQQQPEKGPRYLMSLNSDGSHTKGDGIPDRFSGSSSGAERFLTISSLQSEDEADYYCQTWDTGIRVFGGGTRLTVL
# B2: C1704 IgG (antibody, V domains shown)
# VH: QVQLVQSGAEVKKPGASVKVSCKVSGYTLTELSIHWVRQAPGKGLEWMGSFDPEDGETICAQKFQGRVTMTEDTSTDTAYMELSSLRSEDTAVYYCATEWRGCSDTSCQGTNWFDPWGQGTLVTVSS
# VL: B1 VL with L2P, N19K, N29S, S30T, S49K, T57N, F76Y, D96G, I99V, R107K
# B3: C1621 IgG (antibody, V domains shown)
# VH: EVQLVESGGGLVKPGGSLRLSCAASGFSFNNSNMNWVRQAPGKGLEWVSSISSSSNYIYYVDSVKGRFTISRDNAKNSLYLQMSSLRVEDTAVYYCASAQSSARWGGYYQYAMDVWGQGTTVTVSS
# VL: EIVMTQSPATLSVSPGERATLSCRASQSVSSSLAWYQQKPGQAPRLLIYDASTRATGIPARFSGRGSGTEFTLTISSLQSEDFAVYYCQQYYNWPPWTFGQGTKVEI
# B4: C1557 IgG (antibody, V domains shown)
# VH: QVQLVQSGAEVRKPGASVKVSCKVSGYTLTELSMHWVRQSPGKGLEWMGSFDPDDGETFYAQKFQGRITMSEDTSTDTAYMELSSLRSEDTAVYFCATDSNMIVVRGNYYYSGLDVWGQGTTVTVSS
# VL: EIVMTQSPATLSVSPGERATLSCRASQSVAGNLAWYQQKPGLAPRLLIQGPSTRATGIPARFSGSGSGTEFTLTISSLQSEDFAVYYCHQYNNWPWTFGQGTKVEIK
# B5: C1791 IgG (antibody, V domains shown)
# VH: EVQLLESGGGLVQPGGSRRLSCAASGFTFSIAAMSWVRQAPGKGLEWVSVISTSGGTSYYADSVRGRFTISRDNSQNTLYLQMNSLSAEDTAIYYCAKDLGSYFPDYWGQGTLVTVSS
# VL: DIQMTQSPSSLSASVGDRVTITCRASQGIRNDIGWYQQKPGKAPKRLIHAASSLQSGVPSRFSGSGSGTEFTLTISSLQPEDFATYYCLQYNSYPRVTFGPGTKVDIK
# B6: C1554 IgG (antibody, V domains shown)
# VH: QVQLVQSGAEVKKPGASVKVSCKVSGYTLPEISIHWVREAPGKGLEWMGGFDPEDGETIYSQRFQGRVTMTEDTSTDTAYMELSSLRSEDTAVYYCAASSPFSGGWFHPWGQGTLVTVSS
# VL: QSALTQPASVSGSPGQSITISCTETSSDVGNYNLVSWYQQHPGKAPKLVIYEGTKRPSGVSNRFSASKSGNTASLTISELQAEDEANYYCCSYARSGVFGGGTKLTVL
# B7: C1717 IgG (antibody, V domains shown)
# VH: QVQLVQSGAEVKKPGSSVKVSCKTSGGTFNSFAINWVRQAPGQGPEWMGRVIPVLEIANYAQKFQGRITITADKSTSTAYMELSSLTSEDTAIYYCARHHIAVAQPYFDYWGQGTLVTVSS
# VL: not shown
# Biological target: SARS-CoV-2 Wuhan-Hu-1 NTD (SARS-CoV-2 Wuhan-Hu-1, UniProt P0DTC2)
# Assay: BLI
row,Binder,binding result
1,B1,binds
2,B2,binds
3,B3,binds
4,B4,binds
5,B5,binds
6,B6,binds
7,B7,binds

# From publication PMC8986478 (Immunity, 2022)
